# Assay results: patent US20200347130A1 (JIANGSU HENGRUI MEDICINE, published 2020)
# Positions count from the first letter of the chain named.
# T1: Full-length human CD96 on CHO-S cells (human, UniProt P40200 22-585)
# T1 construct: also called CD96-CHOs; hCD96-CHOs
# T1 sequence: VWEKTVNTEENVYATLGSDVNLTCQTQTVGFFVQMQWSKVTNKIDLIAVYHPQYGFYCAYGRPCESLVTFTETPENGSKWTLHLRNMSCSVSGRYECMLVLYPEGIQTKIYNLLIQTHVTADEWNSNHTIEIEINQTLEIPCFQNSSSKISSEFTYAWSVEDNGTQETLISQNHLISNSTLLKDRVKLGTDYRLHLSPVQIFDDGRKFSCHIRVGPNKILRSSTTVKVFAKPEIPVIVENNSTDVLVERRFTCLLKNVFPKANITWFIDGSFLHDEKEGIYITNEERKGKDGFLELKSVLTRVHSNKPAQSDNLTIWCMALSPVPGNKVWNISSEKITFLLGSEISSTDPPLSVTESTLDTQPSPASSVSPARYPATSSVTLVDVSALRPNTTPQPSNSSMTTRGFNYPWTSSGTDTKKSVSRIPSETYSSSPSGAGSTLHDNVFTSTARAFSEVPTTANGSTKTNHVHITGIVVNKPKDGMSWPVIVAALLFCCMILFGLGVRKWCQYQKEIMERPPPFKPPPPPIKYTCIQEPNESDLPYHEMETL
# T2: CD96 extracellular region with His tag (CD96-His) (human, UniProt P40200 22-519)
# T2 construct: also called CD96-ECD-His; Bio-CD96-His (biotin-labelled form)
# T2 sequence: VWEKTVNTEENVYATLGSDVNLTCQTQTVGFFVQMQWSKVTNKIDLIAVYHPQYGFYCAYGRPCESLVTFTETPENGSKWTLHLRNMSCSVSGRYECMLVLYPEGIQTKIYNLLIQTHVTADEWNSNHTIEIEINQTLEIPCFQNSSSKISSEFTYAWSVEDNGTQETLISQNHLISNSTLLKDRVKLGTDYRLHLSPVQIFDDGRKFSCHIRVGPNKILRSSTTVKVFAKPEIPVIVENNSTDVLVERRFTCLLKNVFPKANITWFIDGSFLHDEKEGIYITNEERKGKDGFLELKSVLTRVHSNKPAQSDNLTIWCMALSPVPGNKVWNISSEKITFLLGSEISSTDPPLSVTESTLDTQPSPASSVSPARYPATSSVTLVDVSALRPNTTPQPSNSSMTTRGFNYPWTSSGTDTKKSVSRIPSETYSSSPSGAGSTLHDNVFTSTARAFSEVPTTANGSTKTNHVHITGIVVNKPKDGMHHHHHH
# B1: h1721-003 (antibody, V domains shown)
# VH: EVTLKESGPVLVKPTETLTLTCTVSGFSLSSYGVNWIRQPPGKALEWLGVIWGDGSTNYHSALISRLTISKDTSKSQVVLTLTNMDPVDTATYYCAKNYFYGSRYGYAMDSWGQGTTVTVSS
# VL: DIQMTQSPSSLSASVGDRVTITCRASENIYSSLAWYQQKPGKAPKLLIYNAKTLIEGVPSRFSGSGSGTDFTLTISSLQPEDFATYYCQHHYGTPYTFGGGTKVEIK
# notes: Only variable regions are tied to this name; also called M721-003
# B2: h1718-012 (antibody, V domains shown)
# VH: EVQLVQSGAEVKKPGASVKVSCKASGYTITDYNMNWVRQAPGQRLEWIGVINPSYGITDYNQNFKDRVTITVDTSASTAYMELSSLRSEDTAVYYCAIQLRLPGYFDVWGQGTTVTVSS
# VL: DIQMTQSPSSLSASVGDRVTITCKASQDINQYLNWFQQKPGKAPKTLIYRANRLVDGVPSRFSGSGSGQDYTLTISSLQPEDFATYYCLKYDEFPYTFGGGTKVEIK
# notes: Only variable regions are tied to this name
# B3: ch1719 (antibody, human IgG4 S228P, kappa, V domains shown)
# VH: QVQLKESGPGLVAPSQSLSITCTVSGFSLISYGVSWVRQPPGKGLEWLGVIWGDGNTNYHSVLISRLSIRKDDSKSQVFLKLNSLQTDDTATYYCAKNNYYGSRYGYPMDYWGQGTSVTVSS
# VL: DIVMTQSHKFMSTSVGDRVSITCKATQDVGTAVAWYQQKPGHSPKLLIYWASTRHTGVPERFTGSGSGTDFTLTIDNVQSEDLADYFCQQYGSSVLTFGAGTKVELRR
# notes: also called chimeric antibody corresponding to m1719
# B4: ch1721 (antibody, human IgG4 S228P, kappa, V domains shown)
# VH: B3 VH with S35N, N56S, V62A, R70S, K81N, N99Y, Y100F, P108A, Y111S, T116I
# VL: DIQMTQSPASLSAAVGETVTITCRASENIYSSLAWYQQKQGKSPQLLVYNAKTLIETVASRFSGSGSGTQYSLKINSLQPEDFGSFYCQHHYGTPYTFGGGTKLEIKR
# notes: also called chimeric antibody corresponding to m1721
# B5: ch1722 (antibody, human IgG4 S228P, kappa, V domains shown)
# VH: QVQLQQPGAELVKPGTSVKLSCKASGNTFIDYWMHWVKQRPGQGLEWIGMLHPNSGTTSFNEKFKIKTTLTIDKSSSTAYMQLSSLTSEDSAIYYCASDYSGPFAYWGQGTLVTVSA
# VL: QIVLTQSPGIMSAFPGEKVTMTCSASSSVNYIHWYQQKSGTSPKRWIFDTSKLASGVPARFSGSGSGTSYSLTISSMEAEDAATYYCQQWRSNPLTFGAGTKLELKR
# notes: also called chi722; chimeric antibody corresponding to m1722
# B6: ch1720 (antibody, human IgG4 S228P, kappa, V domains shown)
# VH: EFQLQQSGPELVKPGASVKISCKASAYSLTDYNMNWVKQSNGKSLEWIGVINPSYGISSYNQKFKGKATLTVDQSSSTAYMHLNSLTSEDSAVYYCARQLRLPGYFDVWGTGTTVTVSS
# VL: DIKMTQSPSSKNASLGERVTITCKASQDINSYLNWFQQKPGKSPKTLIYRASRLVDGVPSRFSGSGSGQDYSLTISSLEYEDMGIYYCLKYDEFPYTFGGGTKLEIKR
# notes: also called chimeric antibody corresponding to m1720
# B7: ch1718 (antibody, human IgG4 S228P, kappa, V domains shown)
# VH: B6 VH with L29I, S58T, S59D, K63N, G66D, H82Q, R98I, T116I
# VL: B6 VL with K11M, N12Y, S31N, S52N, L104V
# notes: also called chimeric antibody corresponding to m1718
# B8: h1722-010 (antibody, V domains shown)
# VH: EVQLVQSGAEVKKPGSSVKVSCKASGGTFSDYWMHWVRQAPGQGLEWIGMLHPNSGTTSFNEKFKIRVTITADKSTSTAYMELSSLRSEDTAVYYCASDYSGPFAYWGQGTLVTVSS
# VL: DIQLTQSPSSLSASVGDRVTITCSASSSVNYIHWYQQKPGKAPKRWIFDTSKLASGVPSRFSGSGSGTDYTLTISSLQPEDFATYYCQQWRSNPLTFGQGTKLEIK
# notes: Only variable regions are tied to this name; also called M722-010
# B9: h1722-017 (antibody, V domains shown)
# VH: B8 VH with N54K
# VL: B8 VL
# B10: h1722-018 (antibody, V domains shown)
# VH: B8 VH with N54Q
# VL: B8 VL
# B11: h1722-006 (antibody, V domains shown)
# VH: B8 VH
# VL: B8 VL with L4M, F48Y, Y70F
# notes: as for B2
# B12: h1719-010 (antibody, V domains shown)
# VH: EVTLKESGPVLVKPTETLTLTCTVSGFSLSSYGVSWVRQPPGKGLEWLGVIWGDGNTNYHSVLISRLTISKDTSKSQVVLTLTNMDPVDTATYYCAKQNYYGSRYGYPIDYWGQGTTVTVSS
# VL: DIQMTQSPSSVSASVGDRVTITCKATQDVGTAVAWYQQKPGKAPKLLIYWASTRHTGVPSRFSGSGSGTDFTLTISSLQPEDFATYYCQQYGSSVLTFGGGTKVEIK
# notes: as for B2
# Biological target: T1, Full-length human CD96 on CHO-S cells
# Experiment: cell ELISA, fixed CD96-overexpressing CHO-S cells
# Experimental: The binding capacity of the anti-CD96 antibody was tested by binding experiments of the antibody to human CD96 protein overexpressing CHO-S cells. The full-length CD96 plasmid was transfected into CHO-S cells by electrotransfection, and cells were then screened for two weeks under pressure for the detection of the expression of CD96. After the over-expressing cells were fixed at the bottom of the 96-well plate, the density of the signal after adding the antibody was used to judge the binding activity of the antibody to CD96 overexpressing CHO-S cells. The specific experimental method is as follows:
# The cells were seeded at a density of 9×10⁴/100 μL/well in a 96-well plate and cultured overnight. After aspirating the supernatant, the plate was washed once with PBS, subsequently, 100 μl/well immunostaining fixation solution (Biyuntian, P0098) was added and fixed for one hour at room temperature, and the plate was washed three times with PBS. Once the liquid was discarded, 250 μl/well of 5% skim milk (BD, 232100) blocking solution diluted with PBS was added, and the plate was blocked in an incubator at 37° C. for 2.5 hours. After blocking, the blocking solution was discarded, the plate was washed 4 times with PBST buffer (pH 7.4 PBS containing 0.05% tween-20), followed by diluting 50 μl/well of different concentrations of the antibodies (hybridoma purification antibody or humanized antibody) to be tested the plate was incubated in an incubator at 37° C. for 2 hours. After incubation, the plate was wash 4 times with PBST. […] After washing the plate 4 times with PBST, 50 μl/well of TMB chromogenic substrate (KPL, Cat No. 52-00-03) was added, the plate was incubated at room temperature for 10-25 min, followed by adding 50 μl/well of 1M H₂SO₄ to stop the reaction. The absorption value was read at 450 nm with a NOVOStar microplate reader, and the EC50 value of the CD96 antibodies to CD96 overexpressing CHO-S cells was calculated (see FIG. 1 and Table 15).
row,Binder,EC50 [nM]
1,B1,0.074
2,B2,0.031
3,B3,0.012
4,B4,0.036
5,B5,0.043
6,B6,0.036
7,B7,0.026
8,B8,0.047
9,B9,0.053
10,B10,0.044
11,B11,0.043

# Biological target: T2, CD96 extracellular region with His tag …
# Experiment: SPR (Biacore), antibody captured, CD96-ECD-His as mobile phase
# Source text: Protein A biosensor chip was used to capture antibodies to be tested, then CD96 antigen was flowed on the surface of the chip, and real time reaction signal was detected by Biacore to obtain the binding and dissociation curve. After the dissociation of each experimental cycle was completed, the biosensor chip was washed and regenerated with a glycine-hydrochloric acid regeneration solution (pH 1.5).
row,Binder,Kd [nM]
1,B1,1.61
2,B2,3.98
3,B12,465
4,B3,9.74
5,B4,2.28
6,B5,1.05
7,B6,1.35
8,B7,3.32
9,B8,0.86
10,B11,1.19

# Biological target: T2, CD96 extracellular region with His tag …
# Experiment: ELISA, CD96-His coated
# Experimental: The binding capacity of the anti-CD96 antibody was tested by ELISA to determine the binding of the antibody to human CD96 protein. The His-tagged CD96 fusion protein was used to coat the microtiter plate, and the intensity of the signal after adding with the antibody was used for evaluating the binding activity of the antibody and CD96. The specific experimental method is as follows:
# CD96-His with the sequence of SEQ ID NO: 4 prepared in Embodiment 1 was diluted to a concentration of 2 μg/ml with PBS buffer (Shanghai Yuanpei Biotechnology Co., Ltd. Cat No. B320), pH 7.4, added to a 96-well microtiter plate (Corning, Cat No. CLS3590-100EA) at a volume of 50 μl/well, and placed in an incubator at 37° C. for 2 hours. After discarding the liquid, 250 μl/well of 5% skim milk (BD, Cat No. 232100) blocking solution diluted with PBS was added, and the plate was incubated at 37° C. for 2.5 hours or at 4° C. overnight (16-18 hours) for blocking. After blocking, the blocking solution was discarded, and the plate was washed 4 times with PBST buffer (pH 7.4 PBS containing 0.05% tween-20). 50 μl/well of different concentrations of the antibodies to be tested (hybridoma purification antibody or humanized antibody) diluted with sample dilution was added, and the plate was incubated in an incubator at 37° C. for 1 hour. […] After washing the plate 4 times with PBST, 50 μl/well of TMB chromogenic substrate (KPL, Cat No. 52-00-03) was added, and the plate was incubated at room temperature for 5-15 minutes, followed by adding 50 μl/well of 1M H₂SO₄ to stop the reaction. The absorption value was read at 450 nm with a NOVOStar microplate reader, and the EC50 value of the binding of CD96 antibody to human CD96 was calculated (see Table 13).
row,Binder,EC50 [nM]
1,B1,0.07
2,B2,0.095
3,B3,0.065
4,B4,0.075
5,B5,0.094
6,B6,0.074
7,B7,0.084
8,B8,0.073
9,B9,0.113
10,B10,0.091
11,B11,0.077
